Test results published in patent US20240307536A1.
Each block holds one substance with its values, some of them ahead of it.

Key:
Assay in all cases: cell-based or functional assay
[1] = biological target: CXCR3 on SAK cells (human) (UniProt P49682)
[2] = biological target: MHC class I on MV411 cells (human)
[3] = biological target: CXCR2 on SAK cells (human) (UniProt P25025)
UniProt P25025, sequence (P25025 whole entry): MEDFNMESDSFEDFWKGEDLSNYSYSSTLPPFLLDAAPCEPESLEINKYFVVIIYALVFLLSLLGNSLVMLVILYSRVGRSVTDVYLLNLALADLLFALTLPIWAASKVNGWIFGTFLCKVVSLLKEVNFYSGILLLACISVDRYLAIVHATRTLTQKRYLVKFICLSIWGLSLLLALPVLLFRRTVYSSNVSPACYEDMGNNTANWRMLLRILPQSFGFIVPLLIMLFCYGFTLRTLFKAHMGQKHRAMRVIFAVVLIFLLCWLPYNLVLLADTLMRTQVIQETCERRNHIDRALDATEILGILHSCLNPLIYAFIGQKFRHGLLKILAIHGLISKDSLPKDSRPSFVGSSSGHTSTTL

UniProt P49682, sequence (P49682 whole entry): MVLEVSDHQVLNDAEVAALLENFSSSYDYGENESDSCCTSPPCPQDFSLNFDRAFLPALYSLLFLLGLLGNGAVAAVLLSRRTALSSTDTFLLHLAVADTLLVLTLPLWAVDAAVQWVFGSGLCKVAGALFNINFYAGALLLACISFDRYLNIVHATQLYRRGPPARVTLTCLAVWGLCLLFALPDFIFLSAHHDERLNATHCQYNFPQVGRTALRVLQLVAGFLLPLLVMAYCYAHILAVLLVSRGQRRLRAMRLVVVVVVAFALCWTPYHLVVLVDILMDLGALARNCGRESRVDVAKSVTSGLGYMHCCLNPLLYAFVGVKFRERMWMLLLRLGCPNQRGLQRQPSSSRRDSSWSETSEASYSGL

- Transwell migration of SAK cells within four hours, percentage of the input cells (500 ng/ml IP-10) [1]: 30%
Substance: IP-10 (PeproTech EC) (from UniProt P02778 22-98) (ligand)

Substance: anti-MHC I antibody (W6/32 clone, Biolegend)
- cytotoxic activity of SAK cells against MV411 cells kept in the presence of 1 ug/ml anti-MHC I antibody, CFSE-based cytotoxicity assay [2]: > 40%

- Transwell migration of SAK cells within four hours, percentage of the input cells (100 ng/mL IL-8) [3]: 3%
Substance: rhIL-8 (PeproTech EC) (from UniProt P10145 28-99) (ligand)
